Experimental data published in the supplement of paper PMC12042874.
± gives the uncertainty stated by the source.

Assay: amyloid nucleation score (Sup35N fusion, yeast selection) (log enrichment); library NNK1; higher = more nucleation; inactive = no reads after selection
In short: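 For the nucleation score, DiMSum gave the log enrichment of output over input reads, centred on the mode score of non-aggregating sequences. Psi-negative yeast expressing Sup35N fused to peptides of 20 random codons were induced with 100 μM copper sulfate for 24 hours and grown 7 days at 30°C on medium lacking adenine and uracil. Input and output plasmid inserts were Illumina-sequenced, and sequences with under 100 input reads were excluded.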

| Substance | amyloid nucleation score |
| --- | --- |
| RHLLSSYRGFLLEQVSASNS | 1.51 ± 0.38 |
| RHVNEAESAGEGTGNYSRYS | -0.206 ± 0.41 |
| RICLLRRGVCTHNVDMVVMY | -0.873 ± 0.68 |
| RIDLGQTVFMVKYIAA | 0.122 ± 0.17 |
| RIEHISQRQCMTFSIVTVVN | -0.49 ± 1.1 |
| RIFNKDSLGI | -0.554 ± 0.48 |
| RIGLWCACMCRATTPVRGIE | -0.317 ± 0.46 |
| RIIQGFLAM | -0.153 ± 1.4 |
| RILRCNPLLCRNSACTGIGA | 0.742 ± 0.75 |
| RIRIFNKKSGMGQRWILVEG | -0.006 ± 0.73 |
| RIRVDVEWSARRPG | 2.19 ± 0.17 |
| RISLVPRDASPESSTKSSSI | inactive |
| RIVQLFSRRNMRCFFIKE | 3.07 ± 0.09 |
| RIYKSWSFRTLRLPEC | 2.25 ± 0.1 |
| RIYRHIIVTGDNII | 2.57 ± 0.56 |
| RIYTTWGHYDNDHQIYLFRG | -0.601 ± 0.36 |
| RIYTYSNCVGLKLAFTFAYR | 0.642 ± 0.36 |
| RKCWGSKEGVKKT | -0.62 ± 0.39 |
| RKDRLTIGNRNL | 0.73 ± 0.69 |
| RKEISGLMVLLEANLVTWFV | -0.085 ± 0.3 |
| RKHIRYTLVREIPLKSFSQY | 0.043 ± 0.28 |
| RKIEWTVSLRGGRKCYFSGE | -0.012 ± 0.3 |

| Substance | amyloid nucleation score |
| --- | --- |
| RKRHSDNYRCEVNRS | -0.235 ± 0.52 |
| RKSVKRVAKGGNS | 3.82 ± 0.14 |
| RLAFLIDRWVALRNEWRKGV | -0.791 ± 0.72 |
| RLCASYSKYETFVADARRDG | 0.413 ± 0.19 |
| RLCFRASRETFLCNRFNY | inactive |
| RLCPTVRVQRLMFFPVCPGP | -0.035 ± 0.42 |
| RLCRYLKYRYG | 0.839 ± 1.1 |
| RLDCIHNFALNSYFRIGAWG | -0.215 ± 0.45 |
| RLDYFLCITYMIDQDRWRIT | -0.254 ± 1.1 |
| RLFRTLGSDRGLFKEYF | 0.734 ± 0.84 |
| RLHPCRVATRPQHYT | inactive |
| RLLDFMFVGVLLACFGVQRW | 1.39 ± 0.29 |
| RLLFLMSWSSVVWINCRVWS | 0.657 ± 0.6 |
| RLLSLLINMTVVVWLSRKT | 2.43 ± 0.25 |
| RLMTASTALGPYTRDLGAYY | -0.089 ± 1.2 |
| RLMVRGLDGKTFHSFFDSIL | inactive |
| RLNHEFFGYKRKTKLAGGLR | -0.107 ± 1.2 |
| RLPLHHTCYVIC | 0.468 ± 1.2 |
| RLPRQYVMG | -0.279 ± 0.66 |
| RLRFLNYTDAG | -1.2 ± 1.5 |
| RLRNLYLQSFDRLCAVCKGY | 0.197 ± 0.35 |
| RLRWI | -0.057 ± 0.23 |

| Substance | amyloid nucleation score |
| --- | --- |
| RLSLAESAPLVNFVSTALGK | -0.168 ± 0.93 |
| RLSNYFNLECEQIRSYYRYM | 1.85 ± 0.11 |
| RLTECSYCCNSDYITHMELL | -0.317 ± 0.29 |
| RLVLILSYYVRWNWGREDN | inactive |
| RLWNSRWFPGNLNCWVKLEW | 0.044 ± 1.1 |
| RLYFYGFRDSLWQFNLSEEH | 7.619 ± 0.052 |
| RLYKN | 0.161 ± 0.9 |
| RMAKYNFVIISVTDDVRQKC | 2.42 ± 0.14 |
| RMCLDGPITWFDRHK | 2.16 ± 0.15 |
| RMDSRKGTNNKSFSGGLEYR | -0.366 ± 0.32 |
| RMDWWLEERASSSCDEELLT | inactive |
| RMLIDGLSLVVDWRYVVEGG | -0.192 ± 0.31 |
| RMMFCVVAESGFQVWEVRSG | -0.502 ± 0.42 |
| RMMLVV | -0.181 ± 0.37 |
| RMMSGRWFMMWWLLVANRGV | inactive |
| RMQRNRGYPKVLLDMN | -0.472 ± 0.46 |
| RMWRYASCHYI | 1.73 ± 0.76 |
| RNCEEGFWRSEQPDHTYKLA | -0.955 ± 0.62 |
| RNCNNVYFELSVLASFLRVR | 8.107 ± 0.05 |
| RNCWGANLFDMWIRKSFR | 0.067 ± 0.77 |
| RNINLANHGCSSISLVYLPS | 2.8 ± 0.21 |
| RNLVWDMNAFKHVFCEDIHY | 0.396 ± 0.69 |

| Substance | amyloid nucleation score |
| --- | --- |
| RNLWGCMIWGMRG | 1.83 ± 0.36 |
| RNQDLLHFLVVGIAVKKYNY | -0.598 ± 0.35 |
| RNSLNTLSPTARCSVSTFVR | 0.562 ± 1.2 |
| RPCFGFLGYNNAV | 0.109 ± 1.4 |
| RPGVGAVRSHSAGRMGGYGD | -0.057 ± 1.7 |
| RPGWSHRITENLPFVEKVGP | -0.502 ± 0.7 |
| RPTLDVIRNCRVDFAEKGGN | 0.711 ± 0.35 |
| RQMRPLGRGPS | -0.169 ± 0.84 |
| RQPVRAMHLDISVRWSYWSV | 2.79 ± 0.12 |
| RQVPPISGAISWGDSPSNGG | 0.18 ± 1.2 |
| RRGGDSMDYNCFSARSRAFM | -0.146 ± 0.71 |
| RRGRLYSKLCLCRF | 0.874 ± 0.92 |
| RRIRFNIRFTTCL | 0.802 ± 0.74 |
| RRKESYYGSSTYVSTNYAL | -0.075 ± 0.68 |
| RRNVM | 0.519 ± 0.25 |
| RRRIEHAALVCV | 0.055 ± 1.1 |
| RRRYSC | -0.307 ± 0.42 |
| RRSISWNIRSEDLR | 0.85 ± 0.48 |
| RRSQGAYLLNDGVRGIL | -0.057 ± 0.28 |
| RRSSSFSGIWYVSVGYNASL | -0.316 ± 0.53 |
